Measurements from patent publication EP4814009A1 (Medpacto Inc., dated 2026).

Molecular target: T1, biotinylated TGF-β1 (R&D Systems, Catalog #NFTG0) (UniProt P01137 279-390, biotinylated (sites not given))
T1 construct: Detection reagent of the sandwich ELISA, 1:50 diluted in PBS
Assay: sandwich ELISA, simultaneous binding of EDB-FN-6x His (coated) and biotinylated TGF-β1

T1 sequence (P01137 279-390 limits assumed): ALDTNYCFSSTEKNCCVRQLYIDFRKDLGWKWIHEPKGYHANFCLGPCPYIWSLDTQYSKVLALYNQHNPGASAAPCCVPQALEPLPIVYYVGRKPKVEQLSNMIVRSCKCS

B1: Anti-EDB-FN scFv-TGFβ Trap (other)
chain: EVQLLESGGGLVQPGGSLRLSCAASGFTFSSFSMSWVRQAPGKGLEWVSSISGSSGTTYYADSVKGRFTISRDNSKNTLYLQMNSLRAEDTAVYYCAKPFPYFDYWGQGTLVTVSSGGGGSGGGGSGGGGSEIVLTQSPGTLSLSPGERATLSCRASQSVSSSFLAWYQQKPGQAPRLLIYYASSRATGIPDRFSGSGSGTDFTLTISRLEPEDFAVYYCQQTGRIPPTFGQGTKVEIKSSSSGSSSSGSSSSGIPPHVQKSVNNDMIVTDNNGAVKFPQLCKFCDVRFSTCDNQKSCMSNCSITSICEKPQEVCVAVWRKNDENITLETVCHDPKLPYHDFILEDAASPKCIMKEKKKPGETFFMCSCSSDECNDNIIFSEEYNTSNPD
notes: L19 scFv fused onto the TGFβ Trap without Fc; also called Anti-EDB-FN scFv-TGFβ Trap without Fc fusion
- binding result: binds
